Six molecules from patent US20050214802A1 (Genentech, published 2005) can be followed below.

Assay [1] addresses ΔCARD human caspase 9 (lacking the first 138 residues) with Ala substitutions at residues 304 to 306 (human) (UniProt P55211). Briefly: Ki(app), inhibition of ΔCARD caspase-9 hydrolysis of Ac-LEHD-AFC; too low to measure accurately.
Assay [2] shares this target. Briefly: Ki(app), inhibition of ΔCARD caspase-9 hydrolysis of Ac-LEHD-AFC.
Assay [3] has the same target. Briefly: caspase-9 inhibition assay, ratio of Ki(app).
Assay [4] has the same target. Briefly: Ki(app), caspase-9 inhibition; upper end tied by Table 7 to MLBIR-Q (4,600 nM).
For assay [5], the target named is T1, caspase-9 zymogen precursor (overexpressed in 293T cells) (UniProt P55211 1-416).
T1 sequence (looked up): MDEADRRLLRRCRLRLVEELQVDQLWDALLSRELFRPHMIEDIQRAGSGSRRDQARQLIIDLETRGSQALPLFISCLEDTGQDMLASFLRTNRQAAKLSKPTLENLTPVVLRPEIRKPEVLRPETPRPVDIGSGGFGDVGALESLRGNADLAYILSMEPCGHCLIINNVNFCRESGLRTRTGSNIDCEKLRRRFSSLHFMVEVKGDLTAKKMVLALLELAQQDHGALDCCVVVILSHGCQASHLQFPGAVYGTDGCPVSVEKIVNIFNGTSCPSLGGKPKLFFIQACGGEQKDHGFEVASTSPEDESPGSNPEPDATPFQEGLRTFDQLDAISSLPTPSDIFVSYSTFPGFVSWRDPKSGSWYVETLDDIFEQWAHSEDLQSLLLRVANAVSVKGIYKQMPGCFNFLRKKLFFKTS
Briefly: co-immunoprecipitation (anti-Flag) from 293T lysates, Western blot with anti-caspase-9. The protocol: 293T cells were transiently transfected with caspase-9 and Flag-tagged BIR domain proteins or vector. After 40 h, cells were lysed in NP40 lysis buffer (120 mM Tris, 150 mM NaCl, 1% NP-40, 1 mM DTT and protease inhibitor cocktail) and lysates immunoprecipitated (IP) with anti-Flag antibody. Samples were then Western blotted with anti-caspase-9 and anti-Flag antibodies. […] When overexpressed, caspase-9 undergoes autocatalytic processing and it is the processed form that physically interacts with XIAP and ML-IAP BIR domains.
On the technique in general: A western blot detects proteins with antibodies after separation by electrophoresis.

Assay [6] deals with ΔCARD human caspase 9 (lacking the first 138 residues) with Ala substitutions at residues 304 to 306 (human) (UniProt P55211). Briefly: caspase-9 inhibition assay, ratio of Ki(app). The source holds these as a separate data set.
Assay [7] shares this target. Briefly: Ki(app), caspase-9 inhibition; lower end tied by Table 7 to full-length ML-IAP (3,200 nM).

Molecule “MLXBIR3SG (ML-IAP chimera: ML-IAP-BIR framework with XIAP-BIR3 residues 336-348 in place of 160-179 and S150G)” displayed a Ki in assay [1] of less than 1 nM.
On to “XIAP-BIR3 (third BIR of XIAP, residues 252-348) (from UniProt P98170 252-348)”, for which the Ki in assay [2] was 13 nM.
Take “MLXBIR3 (ML-IAP-BIR with amino acids 160-179 replaced by amino acids 336-348 of XIAP-BIR3) (from UniProt Q96CA5 63-159; P98170 336-348)”: in assay [3], the fold better at inhibiting caspase-9 than MLBIR-Q is 5 fold and the fold less potent at inhibiting caspase-9 than XIAP-BIR3 turned out to be 70 fold. Also, in assay [2], the Ki stood at 962 nM.

B1: MLBIR-Q (C-terminally truncated variant of ML-IAP-BIR) (protein, human, UniProt Q96CA5 63-172, looked up, not shown: small tags and cut ends)
chain: TEEEEEEGAGATLSRGPAFPGMGSEELRLASFYDWPLTAEVPPELLAAAGFFHTGHQDKVRCFFCYGGLQSWKRGDDPWTEHAKWFPSCQFLLRSKGRDFVHSVQETHSQ
As to B1, the Ki in assay [2] is 4600 nM; in assay [4], 3000 to 5000 nM.

B2: Flag-tagged ML-IAP-BIR (expressed in 293T cells) (other, human, UniProt Q96CA5 63-179, looked up)
chain: TEEEEEEGAGATLSRGPAFPGMGSEELRLASFYDWPLTAEVPPELLAAAGFFHTGHQDKVRCFFCYGGLQSWKRGDDPWTEHAKWFPSCQFLLRSKGRDFVHSVQETHSQLLGSWDP
notes: domain: BIR; also called MLBIR; wild-type ML-IAP-BIR; not shown: Flag tag
For B2, the binding result in assay [5] is given as “no binding”.

B3: full-length ML-IAP with N-terminal His6-tag (protein, human, UniProt Q96CA5 1-298, looked up, not shown: small tags and cut ends)
chain: MGPKDSAKCLHRGPQPSHWAAGDGPTQERCGPRSLGSPVLGLDTCRAWDHVDGQILGQLRPLTEEEEEEGAGATLSRGPAFPGMGSEELRLASFYDWPLTAEVPPELLAAAGFFHTGHQDKVRCFFCYGGLQSWKRGDDPWTEHAKWFPSCQFLLRSKGRDFVHSVQETHSQLLGSWDPWEEPEDAAPVAPSVPASGYPELPTPRREVQSESAQEPGGVSPAEAQRAWWVLEPPGARDVEAQLRRLQEERTCKVCLDRAVSIVFVPCGHLVCAECAPGLQLCPICRAPVRSRVRTFLS
With B3, the fold lower potency for inhibition of caspase-9 relative to XIAP in assay [6] came to 300 fold. In addition, the Ki in assay [2] was 3200 nM; in assay [7], 3000 to 5000 nM.
